Results: US20230183381A1 (VIRTUOSO BINCO, published 2023)

Molecular target: T1, human CD38 extracellular domain (hCD38, recombinant, with AviTag) (human, UniProt P28907 43-300)
T1 construct: also called recombinant CD38; huCD38
Assay: ELISA on human CD38 ECD, EC50 class

| Binder | EC50 [nM] |
| --- | --- |
| humanized h18E4-19 antibody (antibody, V domains shown, the control is hIgG1; also called hu18E4-19; Anti-CD38) VH: EVQLLESGGGLVQPGGSLRLSCAASGFSFNNYWIIWIRQAPGKGLEWVAAIYSPSGDIKYYADWAKGRFTVSKDNSKNTVYLQMNSLRAEDTAVYYCARELSGSSYEGYFESWGQGTLVTVSS VL: DIQLTQSPSTLSASVGDRVTITCRSSQSVYGHNWLAWYQQKPGKAPKLLMYRASNLASGVPSRFSGSGSGTEFTLTISSVQPDDFATYYCQGYYSGGSYAFGGGTKVEIK | 0.02 to 0.1 |
| Anti-CD38 HC_L96A (antibody, V domains shown, Alanine variant of h18E4-19 with the parent VL) VH: EVQLLESGGGLVQPGGSLRLSCAASGFSFNNYWIIWIRQAPGKGLEWVAAIYSPSGDIKYYADWAKGRFTVSKDNSKNTVYLQMNSLRAEDTAVYYCAREASGSSYEGYFESWGQGTLVTVSS VL: DIQLTQSPSTLSASVGDRVTITCRSSQSVYGHNWLAWYQQKPGKAPKLLMYRASNLASGVPSRFSGSGSGTEFTLTISSVQPDDFATYYCQGYYSGGSYAFGGGTKVEIK | 0.02 to 0.1 |
| Anti-CD38 HC_Y100dA (antibody, V domains shown, Alanine variant of h18E4-19 with the parent VL) VH: EVQLLESGGGLVQPGGSLRLSCAASGFSFNNYWIIWIRQAPGKGLEWVAAIYSPSGDIKYYADWAKGRFTVSKDNSKNTVYLQMNSLRAEDTAVYYCARELSGSSYEGAFESWGQGTLVTVSS VL: DIQLTQSPSTLSASVGDRVTITCRSSQSVYGHNWLAWYQQKPGKAPKLLMYRASNLASGVPSRFSGSGSGTEFTLTISSVQPDDFATYYCQGYYSGGSYAFGGGTKVEIK | > 0.5 |
| Anti-CD38 LC_G95A (antibody, V domains shown, Alanine variant of h18E4-19 with the parent VH) VH: EVQLLESGGGLVQPGGSLRLSCAASGFSFNNYWIIWIRQAPGKGLEWVAAIYSPSGDIKYYADWAKGRFTVSKDNSKNTVYLQMNSLRAEDTAVYYCARELSGSSYEGYFESWGQGTLVTVSS VL: DIQLTQSPSTLSASVGDRVTITCRSSQSVYGHNWLAWYQQKPGKAPKLLMYRASNLASGVPSRFSGSGSGTEFTLTISSVQPDDFATYYCQGYYSGASYAFGGGTKVEIK | 0.02 to 0.1 |
| Anti-CD38 HC_G98A (antibody, V domains shown, Alanine variant of h18E4-19 with the parent VL) VH: EVQLLESGGGLVQPGGSLRLSCAASGFSFNNYWIIWIRQAPGKGLEWVAAIYSPSGDIKYYADWAKGRFTVSKDNSKNTVYLQMNSLRAEDTAVYYCARELSASSYEGYFESWGQGTLVTVSS VL: DIQLTQSPSTLSASVGDRVTITCRSSQSVYGHNWLAWYQQKPGKAPKLLMYRASNLASGVPSRFSGSGSGTEFTLTISSVQPDDFATYYCQGYYSGGSYAFGGGTKVEIK | 0.02 to 0.1 |
| Anti-CD38 HC_Y100aA (antibody, V domains shown, Alanine variant of h18E4-19 with the parent VL) VH: EVQLLESGGGLVQPGGSLRLSCAASGFSFNNYWIIWIRQAPGKGLEWVAAIYSPSGDIKYYADWAKGRFTVSKDNSKNTVYLQMNSLRAEDTAVYYCARELSGSSAEGYFESWGQGTLVTVSS VL: DIQLTQSPSTLSASVGDRVTITCRSSQSVYGHNWLAWYQQKPGKAPKLLMYRASNLASGVPSRFSGSGSGTEFTLTISSVQPDDFATYYCQGYYSGGSYAFGGGTKVEIK | 0.02 to 0.1 |
| Anti-CD38 LC_S93A (antibody, V domains shown, Alanine variant of h18E4-19 with the parent VH) VH: EVQLLESGGGLVQPGGSLRLSCAASGFSFNNYWIIWIRQAPGKGLEWVAAIYSPSGDIKYYADWAKGRFTVSKDNSKNTVYLQMNSLRAEDTAVYYCARELSGSSYEGYFESWGQGTLVTVSS VL: DIQLTQSPSTLSASVGDRVTITCRSSQSVYGHNWLAWYQQKPGKAPKLLMYRASNLASGVPSRFSGSGSGTEFTLTISSVQPDDFATYYCQGYYAGGSYAFGGGTKVEIK | 0.1 to 0.5 |
| Anti-CD38 HC_S97A (antibody, V domains shown, Alanine variant of h18E4-19 with the parent VL) VH: EVQLLESGGGLVQPGGSLRLSCAASGFSFNNYWIIWIRQAPGKGLEWVAAIYSPSGDIKYYADWAKGRFTVSKDNSKNTVYLQMNSLRAEDTAVYYCARELAGSSYEGYFESWGQGTLVTVSS VL: DIQLTQSPSTLSASVGDRVTITCRSSQSVYGHNWLAWYQQKPGKAPKLLMYRASNLASGVPSRFSGSGSGTEFTLTISSVQPDDFATYYCQGYYSGGSYAFGGGTKVEIK | 0.02 to 0.1 |
| Anti-CD38 HC_G100cA (antibody, V domains shown, Alanine variant of h18E4-19 with the parent VL) VH: EVQLLESGGGLVQPGGSLRLSCAASGFSFNNYWIIWIRQAPGKGLEWVAAIYSPSGDIKYYADWAKGRFTVSKDNSKNTVYLQMNSLRAEDTAVYYCARELSGSSYEAYFESWGQGTLVTVSS VL: DIQLTQSPSTLSASVGDRVTITCRSSQSVYGHNWLAWYQQKPGKAPKLLMYRASNLASGVPSRFSGSGSGTEFTLTISSVQPDDFATYYCQGYYSGGSYAFGGGTKVEIK | 0.1 to 0.5 |
| Anti-CD38 LC_S95aA (antibody, V domains shown, Alanine variant of h18E4-19 with the parent VH) VH: EVQLLESGGGLVQPGGSLRLSCAASGFSFNNYWIIWIRQAPGKGLEWVAAIYSPSGDIKYYADWAKGRFTVSKDNSKNTVYLQMNSLRAEDTAVYYCARELSGSSYEGYFESWGQGTLVTVSS VL: DIQLTQSPSTLSASVGDRVTITCRSSQSVYGHNWLAWYQQKPGKAPKLLMYRASNLASGVPSRFSGSGSGTEFTLTISSVQPDDFATYYCQGYYSGGAYAFGGGTKVEIK | 0.02 to 0.1 |
| Anti-CD38 HC_E95A (antibody, V domains shown, Alanine variant of h18E4-19 with the parent VL) VH: EVQLLESGGGLVQPGGSLRLSCAASGFSFNNYWIIWIRQAPGKGLEWVAAIYSPSGDIKYYADWAKGRFTVSKDNSKNTVYLQMNSLRAEDTAVYYCARALSGSSYEGYFESWGQGTLVTVSS VL: DIQLTQSPSTLSASVGDRVTITCRSSQSVYGHNWLAWYQQKPGKAPKLLMYRASNLASGVPSRFSGSGSGTEFTLTISSVQPDDFATYYCQGYYSGGSYAFGGGTKVEIK | > 0.5 |

Other lines, results leading:

| EC50 [nM] | Binder |
| --- | --- |
| 0.02 to 0.1 | Anti-CD38 HC_F100eA (antibody, V domains shown, Alanine variant of h18E4-19 with the parent VL) VH: EVQLLESGGGLVQPGGSLRLSCAASGFSFNNYWIIWIRQAPGKGLEWVAAIYSPSGDIKYYADWAKGRFTVSKDNSKNTVYLQMNSLRAEDTAVYYCARELSGSSYEGYAESWGQGTLVTVSS VL: DIQLTQSPSTLSASVGDRVTITCRSSQSVYGHNWLAWYQQKPGKAPKLLMYRASNLASGVPSRFSGSGSGTEFTLTISSVQPDDFATYYCQGYYSGGSYAFGGGTKVEIK |
| 0.1 to 0.5 | Anti-CD38 LC_G90A (antibody, V domains shown, Alanine variant of h18E4-19 with the parent VH) VH: EVQLLESGGGLVQPGGSLRLSCAASGFSFNNYWIIWIRQAPGKGLEWVAAIYSPSGDIKYYADWAKGRFTVSKDNSKNTVYLQMNSLRAEDTAVYYCARELSGSSYEGYFESWGQGTLVTVSS VL: DIQLTQSPSTLSASVGDRVTITCRSSQSVYGHNWLAWYQQKPGKAPKLLMYRASNLASGVPSRFSGSGSGTEFTLTISSVQPDDFATYYCQAYYSGGSYAFGGGTKVEIK |
| > 0.5 | Anti-CD38 HC_E100bA (antibody, V domains shown, Alanine variant of h18E4-19 with the parent VL) VH: EVQLLESGGGLVQPGGSLRLSCAASGFSFNNYWIIWIRQAPGKGLEWVAAIYSPSGDIKYYADWAKGRFTVSKDNSKNTVYLQMNSLRAEDTAVYYCARELSGSSYAGYFESWGQGTLVTVSS VL: DIQLTQSPSTLSASVGDRVTITCRSSQSVYGHNWLAWYQQKPGKAPKLLMYRASNLASGVPSRFSGSGSGTEFTLTISSVQPDDFATYYCQGYYSGGSYAFGGGTKVEIK |
| 0.02 to 0.1 | Anti-CD38 HC_S100A (antibody, V domains shown, Alanine variant of h18E4-19 with the parent VL) VH: EVQLLESGGGLVQPGGSLRLSCAASGFSFNNYWIIWIRQAPGKGLEWVAAIYSPSGDIKYYADWAKGRFTVSKDNSKNTVYLQMNSLRAEDTAVYYCARELSGSAYEGYFESWGQGTLVTVSS VL: DIQLTQSPSTLSASVGDRVTITCRSSQSVYGHNWLAWYQQKPGKAPKLLMYRASNLASGVPSRFSGSGSGTEFTLTISSVQPDDFATYYCQGYYSGGSYAFGGGTKVEIK |
| > 0.5 | Anti-CD38 LC_G94A (antibody, V domains shown, Alanine variant of h18E4-19 with the parent VH; also called Anti-CD38low) VH: EVQLLESGGGLVQPGGSLRLSCAASGFSFNNYWIIWIRQAPGKGLEWVAAIYSPSGDIKYYADWAKGRFTVSKDNSKNTVYLQMNSLRAEDTAVYYCARELSGSSYEGYFESWGQGTLVTVSS VL: DIQLTQSPSTLSASVGDRVTITCRSSQSVYGHNWLAWYQQKPGKAPKLLMYRASNLASGVPSRFSGSGSGTEFTLTISSVQPDDFATYYCQGYYSAGSYAFGGGTKVEIK |
| 0.02 to 0.1 | Anti-CD38 HC_S102A (antibody, V domains shown, Alanine variant of h18E4-19 with the parent VL) VH: EVQLLESGGGLVQPGGSLRLSCAASGFSFNNYWIIWIRQAPGKGLEWVAAIYSPSGDIKYYADWAKGRFTVSKDNSKNTVYLQMNSLRAEDTAVYYCARELSGSSYEGYFEAWGQGTLVTVSS VL: DIQLTQSPSTLSASVGDRVTITCRSSQSVYGHNWLAWYQQKPGKAPKLLMYRASNLASGVPSRFSGSGSGTEFTLTISSVQPDDFATYYCQGYYSGGSYAFGGGTKVEIK |
| 0.02 to 0.1 | Anti-CD38 HC_S99A (antibody, V domains shown, Alanine variant of h18E4-19 with the parent VL) VH: EVQLLESGGGLVQPGGSLRLSCAASGFSFNNYWIIWIRQAPGKGLEWVAAIYSPSGDIKYYADWAKGRFTVSKDNSKNTVYLQMNSLRAEDTAVYYCARELSGASYEGYFESWGQGTLVTVSS VL: DIQLTQSPSTLSASVGDRVTITCRSSQSVYGHNWLAWYQQKPGKAPKLLMYRASNLASGVPSRFSGSGSGTEFTLTISSVQPDDFATYYCQGYYSGGSYAFGGGTKVEIK |
| 0.02 to 0.1 | Anti-CD38 HC_E101A (antibody, V domains shown, Alanine variant of h18E4-19 with the parent VL) VH: EVQLLESGGGLVQPGGSLRLSCAASGFSFNNYWIIWIRQAPGKGLEWVAAIYSPSGDIKYYADWAKGRFTVSKDNSKNTVYLQMNSLRAEDTAVYYCARELSGSSYEGYFASWGQGTLVTVSS VL: DIQLTQSPSTLSASVGDRVTITCRSSQSVYGHNWLAWYQQKPGKAPKLLMYRASNLASGVPSRFSGSGSGTEFTLTISSVQPDDFATYYCQGYYSGGSYAFGGGTKVEIK |
| 0.02 to 0.1 | Anti-CD38 LC_Q89A (antibody, V domains shown, Alanine variant of h18E4-19 with the parent VH; also called Anti-CD38med) VH: EVQLLESGGGLVQPGGSLRLSCAASGFSFNNYWIIWIRQAPGKGLEWVAAIYSPSGDIKYYADWAKGRFTVSKDNSKNTVYLQMNSLRAEDTAVYYCARELSGSSYEGYFESWGQGTLVTVSS VL: DIQLTQSPSTLSASVGDRVTITCRSSQSVYGHNWLAWYQQKPGKAPKLLMYRASNLASGVPSRFSGSGSGTEFTLTISSVQPDDFATYYCAGYYSGGSYAFGGGTKVEIK |
| > 0.5 | Anti-CD38 LC_Y91A (antibody, V domains shown, Alanine variant of h18E4-19 with the parent VH) VH: EVQLLESGGGLVQPGGSLRLSCAASGFSFNNYWIIWIRQAPGKGLEWVAAIYSPSGDIKYYADWAKGRFTVSKDNSKNTVYLQMNSLRAEDTAVYYCARELSGSSYEGYFESWGQGTLVTVSS VL: DIQLTQSPSTLSASVGDRVTITCRSSQSVYGHNWLAWYQQKPGKAPKLLMYRASNLASGVPSRFSGSGSGTEFTLTISSVQPDDFATYYCQGAYSGGSYAFGGGTKVEIK |
